Reference: paper PMC8053111, “MKRN3-mediated ubiquitination of Poly(A)-binding proteins modulates the stability and translation of GNRH1 mRNA in mammalian puberty” (Nucleic Acids Research, 2021)

Tests used:
[1] = target: PABPC1 (human, UniProt P11940 1-636); experiment: EMSA; unmodified; EMSA Binding Buffer (Beyotime, 5x stock; composition, salt and pH not given), room temperature, 1 h; 8% polyacrylamide 0.5x TBE gel; details: protein: recombinant; tags: Flag-His6 (pET28a-PABPC1-Flag-His6); label: 32P (gamma-32P, stated at 3' end by T4 PNK); single strand
PABPC1, sequence (P11940 whole entry): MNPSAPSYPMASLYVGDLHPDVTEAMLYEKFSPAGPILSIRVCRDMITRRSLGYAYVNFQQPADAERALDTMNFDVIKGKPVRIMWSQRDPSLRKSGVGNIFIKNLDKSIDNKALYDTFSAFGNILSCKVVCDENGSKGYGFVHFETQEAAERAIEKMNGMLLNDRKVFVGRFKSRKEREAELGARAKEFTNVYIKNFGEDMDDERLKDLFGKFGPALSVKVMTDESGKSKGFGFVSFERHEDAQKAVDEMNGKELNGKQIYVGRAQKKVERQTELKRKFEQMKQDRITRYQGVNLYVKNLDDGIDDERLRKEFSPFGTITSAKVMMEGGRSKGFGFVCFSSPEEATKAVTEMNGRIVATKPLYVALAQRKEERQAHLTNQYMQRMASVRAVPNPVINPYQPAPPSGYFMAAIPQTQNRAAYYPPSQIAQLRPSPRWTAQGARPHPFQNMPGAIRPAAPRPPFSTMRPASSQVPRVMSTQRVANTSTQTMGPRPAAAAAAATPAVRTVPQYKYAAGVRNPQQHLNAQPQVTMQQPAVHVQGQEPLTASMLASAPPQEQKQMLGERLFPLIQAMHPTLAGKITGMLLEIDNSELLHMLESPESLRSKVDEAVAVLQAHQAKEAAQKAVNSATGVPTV

[2] = target: PABPC4 (human, UniProt Q13310 1-644); experiment: as above; details: protein: recombinant; tags: Flag-His6 (pET28a-PABPC4-Flag-His6); label: 32P (gamma-32P, stated at 3' end by T4 PNK); single strand
PABPC4, sequence (Q13310 whole entry, the tested form may be a part): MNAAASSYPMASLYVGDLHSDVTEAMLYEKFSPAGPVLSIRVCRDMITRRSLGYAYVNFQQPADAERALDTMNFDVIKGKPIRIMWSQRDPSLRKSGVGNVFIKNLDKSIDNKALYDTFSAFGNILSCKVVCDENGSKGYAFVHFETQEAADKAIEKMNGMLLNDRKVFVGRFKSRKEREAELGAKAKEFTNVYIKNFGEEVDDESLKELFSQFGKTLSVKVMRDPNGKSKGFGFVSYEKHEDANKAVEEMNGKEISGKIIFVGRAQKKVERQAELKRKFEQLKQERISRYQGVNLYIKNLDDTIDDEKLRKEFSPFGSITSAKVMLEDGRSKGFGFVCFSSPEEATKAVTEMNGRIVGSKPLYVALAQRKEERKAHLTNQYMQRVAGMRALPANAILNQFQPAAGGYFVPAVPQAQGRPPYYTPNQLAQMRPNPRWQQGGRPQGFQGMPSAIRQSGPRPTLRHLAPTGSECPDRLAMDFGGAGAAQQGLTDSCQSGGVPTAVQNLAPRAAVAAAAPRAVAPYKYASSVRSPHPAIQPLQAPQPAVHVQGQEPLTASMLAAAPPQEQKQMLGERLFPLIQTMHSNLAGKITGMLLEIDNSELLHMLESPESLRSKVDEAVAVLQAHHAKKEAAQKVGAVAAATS

[3] = target: T1, PABPC1-His6 (human, UniProt P11940 1-636); experiment: pull-down; GST pull-down: 20 μg purified Gst-MKRN or MKRN3 truncation, 20 μg PABP-His6 or truncation and Glutathione Sepharose 4B, 4°C overnight in 500 μl of 20 mM Tris-Cl, 100 mM NaCl, 5 mM MgCl2, 1 mM EDTA, 1 mM DTT, 0.5% NP-40, 10 μg/ml BSA, pH 7.5; five washes; Coomassie staining and anti-His immunoblot; details: both partners purified
T1 construct: PABPC1, human, full length; Written PABPC1-His6; also called His6-tagged PABPC1; full length PABPC1; source: E. coli BL21, purified (Ni beads, eluted with imidazole, dialyzed)
T1 sequence (P11940 whole entry, the tested form may be a part): as the sequence (P11940 whole entry) above

[4] = target: T2, PABPC3-His6 (human, UniProt Q9H361 1-631); experiment: as above; details: both partners purified
T2 construct: PABPC3, human; also called His6-tagged PABPC3; source: E. coli BL21, purified (Ni beads, eluted with imidazole, dialyzed)
T2 sequence (Q9H361 whole entry): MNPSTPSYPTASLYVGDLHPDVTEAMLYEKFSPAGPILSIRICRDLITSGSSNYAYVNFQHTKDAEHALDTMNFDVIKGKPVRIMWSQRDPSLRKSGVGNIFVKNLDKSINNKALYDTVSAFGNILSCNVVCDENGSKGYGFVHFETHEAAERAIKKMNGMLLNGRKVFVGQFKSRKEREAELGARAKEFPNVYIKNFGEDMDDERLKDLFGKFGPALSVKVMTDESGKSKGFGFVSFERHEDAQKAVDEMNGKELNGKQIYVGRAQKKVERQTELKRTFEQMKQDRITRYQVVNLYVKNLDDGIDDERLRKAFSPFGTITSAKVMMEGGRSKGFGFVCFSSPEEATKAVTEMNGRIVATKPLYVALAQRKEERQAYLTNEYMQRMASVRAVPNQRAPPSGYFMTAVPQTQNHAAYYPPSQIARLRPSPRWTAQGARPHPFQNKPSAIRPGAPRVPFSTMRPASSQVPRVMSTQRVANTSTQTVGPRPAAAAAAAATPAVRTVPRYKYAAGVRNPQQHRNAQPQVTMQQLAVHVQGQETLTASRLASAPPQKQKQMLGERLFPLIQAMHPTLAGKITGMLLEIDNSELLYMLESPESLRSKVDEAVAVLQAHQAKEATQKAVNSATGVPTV

binding result [3] | binding result [4] | Binder | binding result [1] | binding result [2]
– | – | AAAAAAAAAAAAAAAAAAAAAAAAAAAAAA (ssRNA) [(A)30 RNA] | binds | binds
binds | binds | recombinant Gst-tagged MKRN3 (natural protein, human, UniProt Q13064 1-507, looked up, MKRN3, human, full length; Written Gst-MKRN3; also called Gst-MKRN3; full length MKRN3; source: E. coli BL21, purified (glutathione beads, eluted with reduced glutathione, dialyzed)) MEEPAAPSEAHEAAGAQAGAEAAREGVSGPDLPVCEPSGESAAPDSALPHAARGWAPFPVAPVPAHLRRGGLRPAPASGGGAWPSPLPSRSSGIWTKQIICRYYIHGQCKEGENCRYSHDLSGRKMATEGGVSPPGASAGGGPSTAAHIEPPTQEVAEAPPAASSLSLPVIGSAAERGFFEAERDNADRGAAGGAGVESWADAIEFVPGQPYRGRWVASAPEAPLQSSETERKQMAVGSGLRFCYYASRGVCFRGESCMYLHGDICDMCGLQTLHPMDAAQREEHMRACIEAHEKDMELSFAVQRGMDKVCGICMEVVYEKANPNDRRFGILSNCNHSFCIRCIRRWRSARQFENRIVKSCPQCRVTSELVIPSEFWVEEEEEKQKLIQQYKEAMSNKACRYFAEGRGNCPFGDTCFYKHEYPEGWGDEPPGPGGGSFSAYWHQLVEPVRMGEGNMLYKSIKKELVVLRLASLLFKRFLSLRDELPFSEDQWDLLHYELEEYFNLIL | – | –
binds | – | Gst-MKRN3 middle region (126-295aa) (domain or fragment, human, UniProt Q13064 126-295, looked up, source: E. coli BL21, purified (glutathione beads, eluted with reduced glutathione, dialyzed)) MATEGGVSPPGASAGGGPSTAAHIEPPTQEVAEAPPAASSLSLPVIGSAAERGFFEAERDNADRGAAGGAGVESWADAIEFVPGQPYRGRWVASAPEAPLQSSETERKQMAVGSGLRFCYYASRGVCFRGESCMYLHGDICDMCGLQTLHPMDAAQREEHMRACIEAHEK | – | –
